According to the Human Domainome abundance scans (Beltran et al. 2025):
± gives the uncertainty stated by the source.

B1: SWI/SNF-related matrix-associated actin-dependent regulator of chromatin subfamily B member 1, residues 181 to 248; numbered along this chain, Q12824 (parent)
chain: SQPEVLVPIRLDMEIDGQKLRDAFTWNMNEKLMTPEMFSEILCDDLDLNPLTFVPAIASAIRQQIESY

Variants of: B1
Assay: abundance fitness (aPCA) (normalised: wild type 0, dead -1); higher = more abundant; growth selection in yeast, the domain comes from the species named
Details: Homo sapiens

SQPETLVPIRLDMEIDGQKLRDAFTWNMNEKLMTPEMFSEILCDDLDLNPLTFVPAIASAIRQQIESY [V5T] and SQPEFLVPIRLDMEIDGQKLRDAFTWNMNEKLMTPEMFSEILCDDLDLNPLTFVPAIASAIRQQIESY [V5F] are within error of each other in abundance fitness: 0.213 ± 0.13 for the first, -0.079 ± 0.17 for the second.

Going from SQPELLVPIRLDMEIDGQKLRDAFTWNMNEKLMTPEMFSEILCDDLDLNPLTFVPAIASAIRQQIESY [V5L] to SQPEQLVPIRLDMEIDGQKLRDAFTWNMNEKLMTPEMFSEILCDDLDLNPLTFVPAIASAIRQQIESY [V5Q], the abundance fitness rises from -0.009 ± 0.08 to 0.184 ± 0.11.

YQPEVLVPIRLDMEIDGQKLRDAFTWNMNEKLMTPEMFSEILCDDLDLNPLTFVPAIASAIRQQIESY [S1Y] and LQPEVLVPIRLDMEIDGQKLRDAFTWNMNEKLMTPEMFSEILCDDLDLNPLTFVPAIASAIRQQIESY [S1L] are within error of each other in abundance fitness: 0.088 ± 0.11 for the first, -0.021 ± 0.049 for the second.

IQPEVLVPIRLDMEIDGQKLRDAFTWNMNEKLMTPEMFSEILCDDLDLNPLTFVPAIASAIRQQIESY [S1I] and PQPEVLVPIRLDMEIDGQKLRDAFTWNMNEKLMTPEMFSEILCDDLDLNPLTFVPAIASAIRQQIESY [S1P] are within error of each other in abundance fitness: 0.238 ± 0.3 for the first, -0.109 ± 0.083 for the second.

Compared with KQPEVLVPIRLDMEIDGQKLRDAFTWNMNEKLMTPEMFSEILCDDLDLNPLTFVPAIASAIRQQIESY [S1K], CQPEVLVPIRLDMEIDGQKLRDAFTWNMNEKLMTPEMFSEILCDDLDLNPLTFVPAIASAIRQQIESY [S1C] is lower in abundance fitness: 0.167 ± 0.077 for the first, -0.095 ± 0.067 for the second.

GQPEVLVPIRLDMEIDGQKLRDAFTWNMNEKLMTPEMFSEILCDDLDLNPLTFVPAIASAIRQQIESY [S1G] and VQPEVLVPIRLDMEIDGQKLRDAFTWNMNEKLMTPEMFSEILCDDLDLNPLTFVPAIASAIRQQIESY [S1V] are within error of each other in abundance fitness: -0.061 ± 0.059 for the first, -0.048 ± 0.094 for the second.

First: MQPEVLVPIRLDMEIDGQKLRDAFTWNMNEKLMTPEMFSEILCDDLDLNPLTFVPAIASAIRQQIESY [S1M]
Second: FQPEVLVPIRLDMEIDGQKLRDAFTWNMNEKLMTPEMFSEILCDDLDLNPLTFVPAIASAIRQQIESY [S1F]
The abundance fitness of the first is higher: 0.127 ± 0.071 for the first, -0.132 ± 0.13 for the second.

Compared with AQPEVLVPIRLDMEIDGQKLRDAFTWNMNEKLMTPEMFSEILCDDLDLNPLTFVPAIASAIRQQIESY [S1A], WQPEVLVPIRLDMEIDGQKLRDAFTWNMNEKLMTPEMFSEILCDDLDLNPLTFVPAIASAIRQQIESY [S1W] is lower in abundance fitness: -0.151 ± 0.074 for the first, -0.435 ± 0.074 for the second.

TQPEVLVPIRLDMEIDGQKLRDAFTWNMNEKLMTPEMFSEILCDDLDLNPLTFVPAIASAIRQQIESY [S1T] and DQPEVLVPIRLDMEIDGQKLRDAFTWNMNEKLMTPEMFSEILCDDLDLNPLTFVPAIASAIRQQIESY [S1D] are within error of each other in abundance fitness: -0.09 ± 0.066 for the first, -0.123 ± 0.27 for the second.

Compared with RQPEVLVPIRLDMEIDGQKLRDAFTWNMNEKLMTPEMFSEILCDDLDLNPLTFVPAIASAIRQQIESY [S1R], EQPEVLVPIRLDMEIDGQKLRDAFTWNMNEKLMTPEMFSEILCDDLDLNPLTFVPAIASAIRQQIESY [S1E] is higher in abundance fitness: -0.307 ± 0.09 for the first, 0.194 ± 0.081 for the second.

SQHEVLVPIRLDMEIDGQKLRDAFTWNMNEKLMTPEMFSEILCDDLDLNPLTFVPAIASAIRQQIESY [P3H] and SQWEVLVPIRLDMEIDGQKLRDAFTWNMNEKLMTPEMFSEILCDDLDLNPLTFVPAIASAIRQQIESY [P3W] are within error of each other in abundance fitness: -0.097 ± 0.15 for the first, -0.186 ± 0.073 for the second.

SQNEVLVPIRLDMEIDGQKLRDAFTWNMNEKLMTPEMFSEILCDDLDLNPLTFVPAIASAIRQQIESY [P3N] and SQQEVLVPIRLDMEIDGQKLRDAFTWNMNEKLMTPEMFSEILCDDLDLNPLTFVPAIASAIRQQIESY [P3Q] are within error of each other in abundance fitness: 0.214 ± 0.098 for the first, 0.178 ± 0.061 for the second.

Going from SQYEVLVPIRLDMEIDGQKLRDAFTWNMNEKLMTPEMFSEILCDDLDLNPLTFVPAIASAIRQQIESY [P3Y] to SQREVLVPIRLDMEIDGQKLRDAFTWNMNEKLMTPEMFSEILCDDLDLNPLTFVPAIASAIRQQIESY [P3R], the abundance fitness rises from 0.002 ± 0.092 to 0.161 ± 0.038.

First: SQSEVLVPIRLDMEIDGQKLRDAFTWNMNEKLMTPEMFSEILCDDLDLNPLTFVPAIASAIRQQIESY [P3S]
Second: SQLEVLVPIRLDMEIDGQKLRDAFTWNMNEKLMTPEMFSEILCDDLDLNPLTFVPAIASAIRQQIESY [P3L]
The abundance fitness of the first is higher: 0.129 ± 0.052 for the first, 0.003 ± 0.064 for the second.

Compared with SQDEVLVPIRLDMEIDGQKLRDAFTWNMNEKLMTPEMFSEILCDDLDLNPLTFVPAIASAIRQQIESY [P3D], SQCEVLVPIRLDMEIDGQKLRDAFTWNMNEKLMTPEMFSEILCDDLDLNPLTFVPAIASAIRQQIESY [P3C] is lower in abundance fitness: 0.266 ± 0.074 for the first, -0.297 ± 0.07 for the second.

SQMEVLVPIRLDMEIDGQKLRDAFTWNMNEKLMTPEMFSEILCDDLDLNPLTFVPAIASAIRQQIESY [P3M] and SQTEVLVPIRLDMEIDGQKLRDAFTWNMNEKLMTPEMFSEILCDDLDLNPLTFVPAIASAIRQQIESY [P3T] are within error of each other in abundance fitness: 0.006 ± 0.085 for the first, 0.063 ± 0.067 for the second.

First: SQVEVLVPIRLDMEIDGQKLRDAFTWNMNEKLMTPEMFSEILCDDLDLNPLTFVPAIASAIRQQIESY [P3V]
Second: SQAEVLVPIRLDMEIDGQKLRDAFTWNMNEKLMTPEMFSEILCDDLDLNPLTFVPAIASAIRQQIESY [P3A]
The abundance fitness of the first is lower: -0.146 ± 0.045 for the first, 0.02 ± 0.067 for the second.

SQIEVLVPIRLDMEIDGQKLRDAFTWNMNEKLMTPEMFSEILCDDLDLNPLTFVPAIASAIRQQIESY [P3I] and SQFEVLVPIRLDMEIDGQKLRDAFTWNMNEKLMTPEMFSEILCDDLDLNPLTFVPAIASAIRQQIESY [P3F] are within error of each other in abundance fitness: -0.245 ± 0.35 for the first, 0.05 ± 0.078 for the second.

SQKEVLVPIRLDMEIDGQKLRDAFTWNMNEKLMTPEMFSEILCDDLDLNPLTFVPAIASAIRQQIESY [P3K] and SPPEVLVPIRLDMEIDGQKLRDAFTWNMNEKLMTPEMFSEILCDDLDLNPLTFVPAIASAIRQQIESY [Q2P] are within error of each other in abundance fitness: 0.289 ± 0.09 for the first, -0.079 ± 0.41 for the second.

First: SHPEVLVPIRLDMEIDGQKLRDAFTWNMNEKLMTPEMFSEILCDDLDLNPLTFVPAIASAIRQQIESY [Q2H]
Second: SFPEVLVPIRLDMEIDGQKLRDAFTWNMNEKLMTPEMFSEILCDDLDLNPLTFVPAIASAIRQQIESY [Q2F]
The abundance fitness of the first is lower: -0.266 ± 0.16 for the first, 0.392 ± 0.24 for the second.
